Reference: the supplement of paper PMC7125110
± gives the standard error. This sample holds only a part of the variants without activity.

B1: glmS ribozyme (parent)
chain: AUAAAAGCGCCAGAACUACAGAAAUGUAGUUGACGAGGAGGAGGUUUAUCGAAUUUUCGGCGGAUGCCUCCAAA

Variants of: B1
Experiment: self-cleavage kobs at 2500 uM GlcN6P; higher = faster cleavage; RNA array
Details: with glucosamine-6-phosphate
Summary of the method: (§1)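 A hybridised Cy3 probe tracked barcoded ribozyme variants, transcribed in situ by E. coli RNA polymerase on sequenced MiSeq chips, at 37 °C. The variants received 40 μM to 10 mM glucosamine-6-phosphate in HEPES/KCl/Mg(OAc)2 buffer. kobs came from decay fits and kcat and KM from weighted Michaelis–Menten fits.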

C34G G35U G43U and A33G A53C C58A cannot be ordered by “self-cleavage kobs at 2500 uM GlcN6P” value: under 1e-05 s⁻¹ for the first, under 1e-05 s⁻¹ for the second.

G40C G43A A48U A64C U69A and G32A A42U U46C cannot be ordered by “self-cleavage kobs at 2500 uM GlcN6P” value: under 1e-05 s⁻¹ for the first, under 1e-05 s⁻¹ for the second.

First: G32A U45C C71U
Second: A36U G40U G62C G66C
The “self-cleavage kobs at 2500 uM GlcN6P” value of the first is higher: 7.08e-05 ± 2.9e-05 s⁻¹ for the first, under 1e-05 s⁻¹ for the second.

G37A G41A C61U and G40U U46G A48C cannot be ordered by “self-cleavage kobs at 2500 uM GlcN6P” value: under 1e-05 s⁻¹ for the first, under 1e-05 s⁻¹ for the second.

Compared with G44U C67U C71A, G37A U56C is 7.6-fold higher in “self-cleavage kobs at 2500 uM GlcN6P” value: 3.95e-05 ± 1.3e-05 s⁻¹ for the first, 0.000299 ± 7.3e-05 s⁻¹ for the second.

A36G C61G C67G U69G C71A and A33G U45G U47G cannot be ordered by “self-cleavage kobs at 2500 uM GlcN6P” value: under 1e-05 s⁻¹ for the first, under 1e-05 s⁻¹ for the second.

A33U A48U G59A C61U C71U and U31G G37U U56G cannot be ordered by “self-cleavage kobs at 2500 uM GlcN6P” value: under 1e-05 s⁻¹ for the first, under 1e-05 s⁻¹ for the second.

C34U U47C C61U and A39U A52C C67G U69G cannot be ordered by “self-cleavage kobs at 2500 uM GlcN6P” value: under 1e-05 s⁻¹ for the first, under 1e-05 s⁻¹ for the second.

Compared with A36U A42G G60U C70A, A42U U45G A53C is higher in “self-cleavage kobs at 2500 uM GlcN6P” value: under 1e-05 s⁻¹ for the first, 0.000111 ± 2.6e-05 s⁻¹ for the second.

First: G38U A42U U49A
Second: A33C C50G
The “self-cleavage kobs at 2500 uM GlcN6P” value of the first is lower: under 1e-05 s⁻¹ for the first, 0.000218 ± 9.9e-05 s⁻¹ for the second.

G32U G37C A42C and G40U U47G G51C U65A cannot be ordered by “self-cleavage kobs at 2500 uM GlcN6P” value: under 1e-05 s⁻¹ for the first, under 1e-05 s⁻¹ for the second.

A42G G44A G51U and G40A C61G G66C C67A cannot be ordered by “self-cleavage kobs at 2500 uM GlcN6P” value: under 1e-05 s⁻¹ for the first, under 1e-05 s⁻¹ for the second.

G37U G38U A39C and G35A A52U U54A C61U C67G cannot be ordered by “self-cleavage kobs at 2500 uM GlcN6P” value: under 1e-05 s⁻¹ for the first, under 1e-05 s⁻¹ for the second.

G32A C68G C70G and C34A A48U C50U cannot be ordered by “self-cleavage kobs at 2500 uM GlcN6P” value: under 1e-05 s⁻¹ for the first, under 1e-05 s⁻¹ for the second.

Compared with G35C A42U U56C C68G, G40U U54G C70G C71A is higher in “self-cleavage kobs at 2500 uM GlcN6P” value: under 1e-05 s⁻¹ for the first, 6.39e-05 ± 1.8e-05 s⁻¹ for the second.

G38A A42C U56G and C34U G44U U49A cannot be ordered by “self-cleavage kobs at 2500 uM GlcN6P” value: under 1e-05 s⁻¹ for the first, under 1e-05 s⁻¹ for the second.

Compared with U45A A48U, G32C G35C G43C C58U U69C is lower in “self-cleavage kobs at 2500 uM GlcN6P” value: 0.0011 ± 0.00038 s⁻¹ for the first, under 1e-05 s⁻¹ for the second.

G35C C58G G60U U65C and C34A A39U C50A A53G C68U cannot be ordered by “self-cleavage kobs at 2500 uM GlcN6P” value: under 1e-05 s⁻¹ for the first, under 1e-05 s⁻¹ for the second.

Going from G43C U45A C68G to A33C G63A C68A, the “self-cleavage kobs at 2500 uM GlcN6P” value falls from 0.00405 ± 0.0014 s⁻¹ to under 1e-05 s⁻¹.

In the case of A36C G40U U55A U56G C70G, the “self-cleavage kobs at 2500 uM GlcN6P” value is reported as under 1e-05 s⁻¹.

Variants of: B1
Experiment: self-cleavage kobs at 10000 uM GlcN6P; higher = faster cleavage; RNA array
Details: with glucosamine-6-phosphate
Summary of the method: as §1

Compared with G44U C67U C71A, G37A U56C is 8.5-fold higher in “self-cleavage kobs at 10000 uM GlcN6P” value: 4.71e-05 ± 1.2e-05 s⁻¹ for the first, 0.000401 ± 5.4e-05 s⁻¹ for the second.

G40U U47G G51C U65A and A42G G44A G51U cannot be ordered by “self-cleavage kobs at 10000 uM GlcN6P” value: under 1e-05 s⁻¹ for the first, under 1e-05 s⁻¹ for the second.
